Results taken from article PMC4783942, “Microwave-Assisted Synthesis of Glycoconjugates by Transgalactosylation with Recombinant Thermostable β-Glycosidase from Pyrococcus” (International Journal of Molecular Sciences, 2016).

Substrate: CC(=O)N[C@@H]1[C@@H](O)[C@H](O)[C@@H](CO)O[C@H]1NC(=S)NCCNC(=O)OC(C)(C)C
Assay: transgalactosylation kinetics, HPLC
Format: biochemical, Pyrococcus woesei
Conditions: acceptor substrate varied, donor lactose, 85 °C thermal heating, citrate-phosphate buffer pH 5.5

B1: β-glycosidase from Pyrococcus woesei (DSM 3773) (Pyrococcus woesei; T436I) (protein)
chain: MFPEKFLWGVAQSGFQFEMGDKLRRNIDTNTDWWHWVRDKTNIEKGLVSGDLPEEGINNYELYEKDHEIARKLGLNAYRIGIEWSRIFPWPTTFIDVDYSYNESYNLIEDVKITKDTLEELDEIANKREVAYYRSVINSLRSKGFKVIVNLNHFTLPYWLHDPIEARERALTNKRNGWVNPRTVIEFAKYAAYIAYKFGDIVDMWSTFNEPMVVVELGYLAPYSGFPPGVLNPEAAKLAILHMINAHALAYRQIKKFDTEKADKDSKEPAEVGIIYNNIGVAYPKDPNDSKDVKAAENDNFFHSGLFFEAIHKGKLNIEFDGETFIDAPYLKGNDWIGVNYYTREVVTYQEPMFPSIPLITFKGVQGYGYACRPGTLSKDDRPVSDIGWELYPEGMYDSIVEAHKYGVPVYVTENGIADSKDILRPYYIASHIKMIEKAFEDGYEVKGYFHWALTDNFEWALGFRMRFGLYEVNLITKERIPREKSVSIFREIVANNGVTKKIEEELLRG
notes: N-terminal His6-tag (pETDuet-1, tag kept), E. coli Rosetta2(DE3)pLysS; cloned gene differs from AF043283.1 by T436I, as in P. furiosus E08095.1 / AAC44387.1
  Km: 15.6 mM
